{
  "source": "paper PMC4535357",
  "target": "T1, SRSF2 (UniProt Q01130 1-221)",
  "T1 sequence": "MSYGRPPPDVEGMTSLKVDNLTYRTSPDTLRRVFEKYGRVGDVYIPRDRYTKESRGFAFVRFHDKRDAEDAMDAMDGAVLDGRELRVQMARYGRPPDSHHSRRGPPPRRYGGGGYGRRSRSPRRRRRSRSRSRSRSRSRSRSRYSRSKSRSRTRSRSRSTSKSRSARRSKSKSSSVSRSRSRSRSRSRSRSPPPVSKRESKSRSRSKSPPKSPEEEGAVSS",
  "assay": "EMSA",
  "data": [
    {"binder": "GCACGUAUUC (ssRNA)", "note": "[Mut-SRSF2 RNA (CGUA)]", "values": [
      {"measurement": "binding result", "value": "no binding"}
    ]}
  ]
}
